# Assays:
# SHP2-C SH2 = assay: SH2 binding enrichment of the phosphorylated peptide, bacterial display (enrichment ratio); higher = better substrate or ligand; peptides without Tyr show the background
# Grb2 SH2 = Grb2 SH2 (UniProt P62993); assay: as above
# c-Src SH2 = assay: as above
# FGFR1 = FGFR1 (UniProt P11362); assay: phosphorylation enrichment, bacterial display (enrichment ratio); higher = better substrate or ligand; peptides without Tyr show the background
# EPHB1 = EPHB1 (UniProt P54762); assay: as above
# EPHB1, sequence (P54762 whole entry, looked up): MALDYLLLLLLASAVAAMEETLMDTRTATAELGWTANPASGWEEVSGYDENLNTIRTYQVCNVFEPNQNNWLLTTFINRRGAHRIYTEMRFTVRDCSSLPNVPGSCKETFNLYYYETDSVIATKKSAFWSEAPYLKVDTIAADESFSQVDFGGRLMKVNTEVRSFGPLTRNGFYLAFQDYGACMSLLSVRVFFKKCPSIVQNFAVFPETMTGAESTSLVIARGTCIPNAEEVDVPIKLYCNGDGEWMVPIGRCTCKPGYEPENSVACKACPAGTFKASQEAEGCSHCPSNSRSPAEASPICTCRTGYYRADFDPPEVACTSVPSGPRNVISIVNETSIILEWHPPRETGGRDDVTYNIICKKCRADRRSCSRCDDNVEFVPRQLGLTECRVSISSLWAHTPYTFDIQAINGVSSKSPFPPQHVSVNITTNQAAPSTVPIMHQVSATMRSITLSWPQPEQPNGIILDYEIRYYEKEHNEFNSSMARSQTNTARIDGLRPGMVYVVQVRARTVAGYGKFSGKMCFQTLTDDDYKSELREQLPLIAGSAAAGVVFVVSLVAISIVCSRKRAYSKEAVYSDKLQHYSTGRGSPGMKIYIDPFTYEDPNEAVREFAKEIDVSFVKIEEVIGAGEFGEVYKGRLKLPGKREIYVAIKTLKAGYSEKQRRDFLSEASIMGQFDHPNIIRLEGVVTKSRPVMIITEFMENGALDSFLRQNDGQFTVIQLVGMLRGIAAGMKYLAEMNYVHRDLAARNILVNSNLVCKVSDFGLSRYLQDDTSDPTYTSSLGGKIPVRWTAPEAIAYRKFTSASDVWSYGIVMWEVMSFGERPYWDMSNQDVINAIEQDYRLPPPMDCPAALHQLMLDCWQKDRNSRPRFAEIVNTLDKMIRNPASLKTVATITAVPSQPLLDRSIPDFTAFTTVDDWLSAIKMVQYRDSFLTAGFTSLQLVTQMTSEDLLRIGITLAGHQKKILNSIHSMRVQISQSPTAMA
# Hck = Hck (UniProt P08631); assay: as above
# Fyn = Fyn (UniProt P06241); assay: as above
# Fes = Fes (UniProt P07332); assay: as above
# Fes, sequence (P07332 whole entry, looked up): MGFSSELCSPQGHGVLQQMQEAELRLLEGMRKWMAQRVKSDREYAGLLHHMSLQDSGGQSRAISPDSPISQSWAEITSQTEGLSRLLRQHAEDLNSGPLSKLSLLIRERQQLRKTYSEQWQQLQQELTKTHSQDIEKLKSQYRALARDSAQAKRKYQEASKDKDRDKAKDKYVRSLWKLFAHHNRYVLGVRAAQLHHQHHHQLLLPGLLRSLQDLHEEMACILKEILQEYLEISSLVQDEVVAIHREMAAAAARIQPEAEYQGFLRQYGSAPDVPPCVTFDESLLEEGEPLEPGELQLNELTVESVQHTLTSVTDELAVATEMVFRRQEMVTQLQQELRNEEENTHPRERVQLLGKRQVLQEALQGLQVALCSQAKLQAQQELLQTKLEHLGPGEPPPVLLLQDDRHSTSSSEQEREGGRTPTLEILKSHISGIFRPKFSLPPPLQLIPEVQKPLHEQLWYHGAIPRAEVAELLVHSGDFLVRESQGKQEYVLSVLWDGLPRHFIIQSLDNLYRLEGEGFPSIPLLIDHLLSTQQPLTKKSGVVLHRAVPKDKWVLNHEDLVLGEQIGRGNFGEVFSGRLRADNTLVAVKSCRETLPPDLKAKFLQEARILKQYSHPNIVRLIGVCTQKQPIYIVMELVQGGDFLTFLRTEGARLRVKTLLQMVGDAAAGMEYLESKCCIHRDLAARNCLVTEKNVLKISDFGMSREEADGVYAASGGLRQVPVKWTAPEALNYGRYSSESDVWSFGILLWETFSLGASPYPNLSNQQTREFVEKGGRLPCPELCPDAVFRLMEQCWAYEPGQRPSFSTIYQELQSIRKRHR
# MERTK = MERTK (UniProt Q12866); assay: as above
# MERTK, sequence (Q12866 whole entry, looked up): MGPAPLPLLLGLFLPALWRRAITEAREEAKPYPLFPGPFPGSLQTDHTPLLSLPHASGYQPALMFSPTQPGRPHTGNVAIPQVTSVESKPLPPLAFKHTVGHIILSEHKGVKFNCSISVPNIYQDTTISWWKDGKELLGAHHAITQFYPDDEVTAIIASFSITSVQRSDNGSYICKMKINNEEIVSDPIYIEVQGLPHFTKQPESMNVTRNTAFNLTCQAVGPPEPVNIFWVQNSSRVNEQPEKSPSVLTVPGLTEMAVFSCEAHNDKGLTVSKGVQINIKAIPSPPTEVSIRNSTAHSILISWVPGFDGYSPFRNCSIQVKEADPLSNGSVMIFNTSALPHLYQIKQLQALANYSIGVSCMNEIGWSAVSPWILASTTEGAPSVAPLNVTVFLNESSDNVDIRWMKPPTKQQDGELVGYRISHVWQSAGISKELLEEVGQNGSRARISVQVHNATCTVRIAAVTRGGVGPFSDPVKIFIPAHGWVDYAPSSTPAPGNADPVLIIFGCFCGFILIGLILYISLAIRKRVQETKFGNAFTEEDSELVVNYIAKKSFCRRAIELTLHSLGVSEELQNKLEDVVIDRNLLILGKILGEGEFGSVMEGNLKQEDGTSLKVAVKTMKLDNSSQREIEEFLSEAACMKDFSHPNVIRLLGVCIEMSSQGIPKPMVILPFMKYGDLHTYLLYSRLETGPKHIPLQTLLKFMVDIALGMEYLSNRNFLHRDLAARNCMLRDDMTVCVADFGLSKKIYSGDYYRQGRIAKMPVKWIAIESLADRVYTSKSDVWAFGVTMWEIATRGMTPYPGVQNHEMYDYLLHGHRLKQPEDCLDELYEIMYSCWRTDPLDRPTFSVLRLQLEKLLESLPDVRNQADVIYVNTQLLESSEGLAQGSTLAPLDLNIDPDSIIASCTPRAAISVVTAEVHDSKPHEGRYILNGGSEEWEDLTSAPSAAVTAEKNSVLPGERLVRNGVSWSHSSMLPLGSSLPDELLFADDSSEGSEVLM
# c-Src = assay: as above
# FGFR3 = FGFR3 (UniProt P22607); assay: as above
# FGFR3, sequence (P22607 whole entry, looked up): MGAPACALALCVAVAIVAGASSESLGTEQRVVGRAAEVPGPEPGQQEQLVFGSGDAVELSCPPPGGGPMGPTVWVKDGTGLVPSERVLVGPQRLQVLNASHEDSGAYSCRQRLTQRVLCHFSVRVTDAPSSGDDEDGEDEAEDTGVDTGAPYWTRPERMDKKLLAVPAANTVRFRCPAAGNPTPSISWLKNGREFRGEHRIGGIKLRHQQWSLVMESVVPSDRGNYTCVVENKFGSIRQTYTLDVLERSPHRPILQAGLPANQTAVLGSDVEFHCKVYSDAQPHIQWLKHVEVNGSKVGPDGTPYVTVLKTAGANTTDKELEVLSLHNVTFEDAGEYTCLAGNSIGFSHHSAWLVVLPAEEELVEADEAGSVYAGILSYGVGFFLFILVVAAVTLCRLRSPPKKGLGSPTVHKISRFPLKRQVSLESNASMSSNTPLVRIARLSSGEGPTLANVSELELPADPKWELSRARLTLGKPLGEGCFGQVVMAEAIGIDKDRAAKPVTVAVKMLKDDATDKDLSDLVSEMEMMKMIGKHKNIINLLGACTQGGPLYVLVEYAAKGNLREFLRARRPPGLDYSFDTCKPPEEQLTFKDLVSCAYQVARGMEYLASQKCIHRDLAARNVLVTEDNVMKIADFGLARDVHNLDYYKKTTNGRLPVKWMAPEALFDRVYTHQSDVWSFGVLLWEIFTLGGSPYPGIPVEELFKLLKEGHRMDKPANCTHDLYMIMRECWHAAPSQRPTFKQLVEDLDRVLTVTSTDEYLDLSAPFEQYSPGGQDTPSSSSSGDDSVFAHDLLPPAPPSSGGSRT
# AncSZ = assay: as above
# EPHB2 = EPHB2 (UniProt P29323); assay: as above
# Jak2 = Jak2 (UniProt O60674); assay: as above
# Jak2, sequence (O60674 whole entry, looked up): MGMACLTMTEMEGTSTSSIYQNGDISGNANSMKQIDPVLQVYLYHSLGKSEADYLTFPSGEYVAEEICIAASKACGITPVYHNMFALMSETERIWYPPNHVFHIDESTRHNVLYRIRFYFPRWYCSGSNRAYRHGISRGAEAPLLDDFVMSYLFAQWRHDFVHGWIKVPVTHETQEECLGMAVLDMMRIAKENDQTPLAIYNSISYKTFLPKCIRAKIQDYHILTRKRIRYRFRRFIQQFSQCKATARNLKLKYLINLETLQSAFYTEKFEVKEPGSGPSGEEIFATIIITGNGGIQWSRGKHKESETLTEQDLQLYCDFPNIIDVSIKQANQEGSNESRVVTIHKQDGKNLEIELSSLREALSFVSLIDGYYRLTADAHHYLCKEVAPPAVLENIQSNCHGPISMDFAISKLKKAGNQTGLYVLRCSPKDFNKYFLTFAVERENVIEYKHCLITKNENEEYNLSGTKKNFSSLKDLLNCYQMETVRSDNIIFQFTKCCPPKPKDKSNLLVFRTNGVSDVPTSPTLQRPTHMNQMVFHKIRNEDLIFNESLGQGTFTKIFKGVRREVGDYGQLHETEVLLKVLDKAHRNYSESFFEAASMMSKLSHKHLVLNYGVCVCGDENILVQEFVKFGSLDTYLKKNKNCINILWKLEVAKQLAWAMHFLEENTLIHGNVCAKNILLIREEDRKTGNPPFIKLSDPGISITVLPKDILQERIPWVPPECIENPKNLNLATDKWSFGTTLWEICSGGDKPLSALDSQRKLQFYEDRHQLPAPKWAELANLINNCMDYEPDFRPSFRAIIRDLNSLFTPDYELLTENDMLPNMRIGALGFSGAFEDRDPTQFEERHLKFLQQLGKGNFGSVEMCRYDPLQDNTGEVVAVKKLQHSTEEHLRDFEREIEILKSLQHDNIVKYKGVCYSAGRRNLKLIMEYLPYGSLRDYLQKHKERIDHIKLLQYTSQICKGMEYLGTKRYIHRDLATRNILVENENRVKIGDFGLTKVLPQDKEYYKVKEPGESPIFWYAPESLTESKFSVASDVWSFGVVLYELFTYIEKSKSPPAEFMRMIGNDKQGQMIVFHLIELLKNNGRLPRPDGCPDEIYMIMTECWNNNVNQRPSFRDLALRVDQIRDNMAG
# c-Abl (mouse) = assay: as above
# Fer (mouse) = assay: as above
# 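For SH2 binding enrichment of the phosphorylated peptide, bacterial display in this document: peptide library displayed on the E. coli surface as eCPX fusions, selected cells deep-sequenced, score is each peptide's frequency after selection divided by its frequency in the input.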
# 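For phosphorylation enrichment, bacterial display in this document: 11-residue human phosphosite peptides and single-mutation variants displayed on the E. coli surface, counted by deep sequencing, each peptide's frequency after selection divided by its frequency in the unselected input library; frequency after pTyr selection over input frequency; kinase dosed for 20-30% of maximal phosphorylation in three min.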
Sequence,SH2 binding enrichment (SHP2-C SH2),SH2 binding enrichment (Grb2 SH2),SH2 binding enrichment (c-Src SH2),phosphorylation enrichment (FGFR1),phosphorylation enrichment (EPHB1),phosphorylation enrichment (Hck),phosphorylation enrichment (Fyn),phosphorylation enrichment (Fes),phosphorylation enrichment (MERTK),phosphorylation enrichment (c-Src),phosphorylation enrichment (FGFR3),phosphorylation enrichment (AncSZ),phosphorylation enrichment (EPHB2),phosphorylation enrichment (Jak2),phosphorylation enrichment (c-Abl (mouse)),phosphorylation enrichment (Fer (mouse))
DAVAVCHGKIS [SH2D1A_Y7_Y7C],0.539,0.71,0.536,0.467,0.387,0.458,0.472,0.745,0.403,0.406,0.628,0.658,0.471,0.774,0.59,0.467
VAMDDYLKNVV [LRRK2_Y707_M712V],0.648,0.828,0.573,0.468,0.482,0.477,0.364,0.919,0.393,0.376,0.666,0.872,0.59,0.708,0.518,0.405
YSQNICIQNRN [PKP2_Y631_Y631C],0.619,0.7,0.56,0.524,0.529,0.501,0.415,1.01,0.49,0.432,0.641,0.874,0.503,0.777,0.663,0.498
RLLRGYDQSAF [HLA-C_Y137_YF],0.953,1.26,0.758,0.412,0.422,0.439,0.416,0.592,0.443,0.459,0.712,0.669,0.526,0.628,0.708,0.502

# Continued, in another order:
SH2 binding enrichment (SHP2-C SH2),SH2 binding enrichment (Grb2 SH2),SH2 binding enrichment (c-Src SH2),Sequence,phosphorylation enrichment (FGFR1),phosphorylation enrichment (EPHB1),phosphorylation enrichment (Hck),phosphorylation enrichment (Fyn),phosphorylation enrichment (Fes),phosphorylation enrichment (MERTK),phosphorylation enrichment (c-Src),phosphorylation enrichment (FGFR3),phosphorylation enrichment (AncSZ),phosphorylation enrichment (EPHB2),phosphorylation enrichment (Jak2),phosphorylation enrichment (c-Abl (mouse)),phosphorylation enrichment (Fer (mouse))
0.764,0.804,0.446,SKDQIYPMKLK [RANBP17_Y823],0.386,0.29,0.361,0.417,0.533,0.355,0.572,0.437,0.451,0.458,0.493,0.449,0.336
1.2,1.46,0.992,PVKTPYSLKRW [BMPR2_Y979_R974P],0.653,0.499,0.427,0.63,1.49,0.586,0.987,0.789,1.04,0.84,1.36,1.14,0.609
0.747,0.748,0.528,SGSFRYGSSCE [SELE_Y390],0.393,0.412,0.47,0.45,0.801,0.388,0.466,0.554,0.642,0.456,0.644,0.486,0.353
0.851,1.02,0.687,FIATQYSLCPR [LBR_Y166_R169C_YF],0.475,0.618,0.749,0.486,1.07,0.752,0.683,0.762,1.03,0.666,1.14,0.777,0.631

# Source: the supplement of paper PMC10065799, “High-throughput profiling of sequence recognition by tyrosine kinases and SH2 domains using bacterial peptide display” (eLife, 2023)
